“Also recorded” adds a separate entry of the source.

One series concerns N18 cells. Kind of series: Neurite outgrowth assay in N18 cells. It counts as cell-based. The settings on record: immobilized proteins coated at 500 μg/ml, 17 hours (FIG. 3A). The method, then:
FIG. 3A is a graph showing that neurite outgrowth in N18 cells is induced by immobilized laminin (Ln), immobilized TS and immobilized fragments of TS. Proteins were immobilized by incubating plates which contained wells filled with solutions of the proteins (protein concentration was 500 μg/ml) at 4° C. overnight. The protein solutions were removed and the plates were further incubated with 1% BSA at room temperature for one hour. N18 cells were cultured in the coated wells in serum-free RPMI-1640/0.2% BSA for 17 hours, and neurite outgrowth was measured by phase-contrast microscopy. […] Ln, laminin; TS, purified T. cruzi trans-sialidase; 7F, recombinant TS from clone 7F; 19Y, recombinant TS from clone 19Y; TS-F, recombinant fragment consisting of amino acid residues 33-666 of TS (SEQ ID NO:2); TS-CC-47, recombinant fragment consisting of amino acid residues 79-478 of TS (SEQ ID NO:2); TS-Cat-47, recombinant fragment consisting of amino acid residues 79-415 of TS (SEQ ID NO:2); BSA, bovine serum albumin.
(§1) 96-well microtiter plates were coated overnight at 4° C. with the TS or peptides or fragments thereof, or with control proteins laminin (Ln) or bovine serum albumin (BSA) at 500 μg/ml. After removing the compounds, the plates were further incubated with 1% BSA for 1 hour at room temperature and immediately used as substratum for PC12 or N18 (Prasad, K. N., Biol Rev Camb Philos Soc, 66:431-451 (1991)) cells in serum-free RPMI/0.2% BSA. Neurite outgrowth was measured using a phase-contrast microscope 17 hours later.

In series [1] the test system is PC12 cells. Briefly: Neurite outgrowth assay in PC12 cells. It is filed as cell-based, rat. Conditions: neurite outgrowth assay, concentration not given.
Description: (§2) PC12 cells were obtained from ATCC (Manassas, Va. (Accession No. CRL-1721)) and cultured on collagen-coated dishes in RPMI 1640 supplemented with 10% horse serum and 5% fetal bovine serum (Greene, L. A. and Tishler, A. S., Proc. Natl. Acad. Sci. USA, 73: 2424-2428 (1976)). For differentiation and survival experiments, cells were washed three times in serum-free RPMI/0.2% BSA, plated in the same medium in collagen-coated plastic dishes at 2×10^5/ml, without and with growth factors, TS, recombinant proteins, synthetic peptides, for the time and concentrations indicated in the Figures.
as §1

The test system of series [2] is PC12 cells. Briefly: Trophic factor withdrawal-induced apoptosis of PC12 cells (DAPI/TUNEL). The settings on record: serum-free RPMI-1640/0.2% BSA, 17 hours, DAPI or TUNEL. It is filed as cell-based, rat.
Description: as §2
Cell staining with 4,6-diamino-2-phenylindole (DAPI). Cells were fixed with 4% formaldehyde in PBS for 5 minutes, washed with PBS, stained with 10 μg/ml DAPI (Sigma) for 2 minutes, washed with PBS, and visualized under UV light using a fluorescent microscope. About 300-400 cells were examined under the microscope to determine the percentage of apoptotic cells.
Cell DNA nick end labeling (TUNEL) (Gavrieli, Y., et al., J. Cell. Biol. 119: 493-501 (1992)) assay was performed using a kit purchased from Boehringer Mannheim as described by the manufacturer.
Protection against apoptosis of PC12 cells in serum-free medium containing a test agent (agent N)(e.g., protection induced by TS, TS fragments, NGF or other growth factors), was calculated by the formula: 100%-[(apoptosis(%) of cells kept in RPMI containing test agent N÷apoptosis (%) of cells kept in RPMI)×100%]. Testing the effect of wortmannin (Sigma) and LY294002 (Sigma) in inhibiting the neuroprotection of TS was performed following the protocol described by others (Yao and Cooper, Science, 267:2003-2006 (1995); D'Mello et al., J. Neurosci 17:1548-1560 (1997)). In brief, PC12 cells were switched from growth medium to RPMI without and with TS or various other growth factors. After 24 hr, wortmannin and LY294002 were added to the cultures. After another 24 hrs, cells were examined for apoptosis by the DAPI assay, as above.

The subject of series [3] is human bladder carcinoma T-24 cell line. Briefly: IL-6 secretion by T-24 carcinoma cells (ELISA). It counts as cell-based. The settings on record: 24 hours culture. The method, then:
(§3) Primary cultures of human intestinal microvascular endothelial cells (HIMEC) isolated from normal jejunal mucosa/submucosal tissue were prepared as described (Strong et al., Gastroenterology 114: 1244-1256 (1998)). The HIMEC were cultured in fibronectin-coated plasticware in MCDB medium (Sigma) supplemented with 20% FBS, 90 μg/ml heparin and 50 μg/ml endothelial cell growth factor (Sigma). T-24 cells (ATCC Accession No. HTB-4) were cultured in M199 medium supplemented with 10% FBS. PBMC were purified by Ficoll-Paque gradient as described (Current Protocols in Immunology, pp 7.1.1-7.1.2). Vero cells (ATCC Accession No. CCL-81) were grown in RPMI medium with 5% Nu serum and infected with the Silvio X-10/4 of T. cruzi as described previously (Chuenkova et al., J. Exp. Med. 181: 1693-1703, (1995)).
(§4) Endothelial cells and T-24 cells were plated on 24-well plates at a density of 1×10^3 cells/well, while peripheral blood mononuclear cells (PBMC) were plated in the similar wells at 1×10^6/well. Triplicat cultures of cells were incubated test agents for a predetermined amount of time. […] Cytokines and chemokines released in the culture supernatants were measured by ELISA assay following the instructions of the manufacturer (Endogen). The cytokines tested were IL-1β, IL-4, IL-8, IL-10, IL-12, IFN-γ, TNF-α, and the chemokines RANTES and MCP-1. Negative controls were cells incubated in medium containing polymixin B at 10 μg/ml, and positive controls were cells incubated with bacterial LPS at the low ng/ml range (for PBMC or HIMEC) or in the μg/ml range for carcinoma T-24 cells. In some experiments, IL-1β, or TNFα were used as positive control for cytokine release.
Background: An ELISA detects its analyte on a solid surface through an enzyme-linked reagent.

A further series can be described thus: Trans-sialidase assay. It counts as biochemical. The method, then:
The trans-sialidase assay was performed as described (Scudder et al., J. Biol. Chem. 268:9886-9891 (1993)) with slight modifications. Various amounts of intact enzyme or enzyme fragments were added to 50 mM PBS, Ph 7.2, containing 15% fetal calf serum and […] of [^14C]N-acetyllactosamine (4×10^5 dpm), 50 μg BSA and 0.02% NaN3 in a volume of 60 μl. After incubation for a predetermined amount of time at room temperature, the reaction mixture was diluted to 1.0 ml with distilled water and applied to a column containing 1.0 ml Q-Sepharose equilibrated with water. Sialylated product was eluted with 1 M NaCi and quantified by scintillation counting.
TS enzymatic activity was measured by the sialylation of the acceptor ^14C-labeled N-acetyllactosamine on anion exchange resins (Scudder, P. et. al., J. Biol. Chem. 268:9886-9891 (1993)). Recombinant TSA-1, was expressed on insect sf9 cells and purified from serum-free medium by ion exchange chromatography (monoQ) and preparative SDS-PAGE (Wrightsman, R. A. et al., J. Immunol., 153:3148-3154 (1994).

Series [4] concerns peripheral blood mononuclear cells (PBMC). Briefly: IL-6 secretion by PBMC (ELISA). It is filed as cell-based, human. On the set-up: IL-6 secretion by PBMC: dose or concentration left out as unconfirmed. The settings on record: 24 hrs culture. How it is done: as §3, §4
TR peptides (Table 2) were synthesized at the Tufts Synthesis Facility (Boston, Mass.). Each peptide was purified by HPLC, and the number of amino acids and molecular weight of each peptide verified by mass spectrometry. Peptides were dissolved in growth medium (10% FCS in RPMI) and added at various concentrations to 1×10^6 PBMC/well in 24-well plates. After 24 hrs, IL-6 was assayed by ELISA in the conditioned supernatants.

B1: TS-Cat-47: recombinant fragment consisting of amino acid residues 79-415 of TS (SEQ ID NO:2) (protein, listed as Trypanosoma cruzi)
chain: MVAIADARYDTSNDNSLIDTVAKYSVDDGETWETQIAIKNSRVSSVSRVVDPTVIVKGNKLYVLVGSYYSSRSYWSSHGDARDWDILLAVGEVTKSTAGGKITASIKWGSPVSLKKFFPAEMEGMHTNQFLGGAGVAIVASNGNLVYPVQVTNKKKQVFSKIFYSEDDGKTWKFGKGRSDFGCSEPVALEWEGKLIINTRVDWKRRLVYESSDMEKPWVEAVGTVSRVWGPSPKSNQPGSQSSFTAVTIEGMRVMLFTHPLNFKGRWLRDRLNLWLTDNQRIYNVGQVSIGDENSAYSSVLYKDDKLYCLHEINTDEVYSLVFARLVGELRIIKSVL
With B1, the “neurite outgrowth in N18 cells” value in the series with N18 cells is “inactive in stimulating neurite outgrowth”. Also, the “neurite outgrowth in PC12 cells” value in the series on PC12 cells [1] was “did not promote neurite outgrowth”. In the series with PC12 cells [2], the “protection of PC12 cells from apoptosis induced by trophic factor withdrawal” value (“protection of PC12 cells” below) is recorded as “promoted the survival of the PC12 cells”.

B2: TS-H32 (protein, listed as Trypanosoma cruzi)
chain: KKKQVFSKIFYSEDDGKTWKFGEGRSAFGCSEAVALEWEGKLIINTRVDYRRRLVYESSDMGNTWLEAVGTLSRVWGPSPKSNQPGSQSSFTAVTIEGMRVMLFTHPLNFKGRWLRDRLNLWLTDNQRIYNVGQVSIGDENSAHSSVLYKDDKLYCLHEINSNEVYSLVFARLVGELRIIKSVLQSWKNWDSHLSSICTP
B2: in series [3], the “IL-6 secretion by T-24 cells” value was “stimulating IL-6 secretion”. Moreover, the trans-sialidase enzymatic activity result in the series “Trans-sialidase assay” is “enzymatically-inactive”. Moreover, the “IL-6 secretion by PBMC” value in series [4] is reported as “stimulating IL-6 secretion”.

B3: TS-F-47: recombinant TS fragment, amino acid residues 79-666 of SEQ ID NO:34 (protein, listed as Trypanosoma cruzi)
chain: GDARDWDILLAVGEVTKSTAGGKITASIKWGSPVSLKKFFPAEMEGMHTNQFLGGAGVAIVASNGNLVYPVQVTNKRKQVFSKIFYSEDDGKTWKFGKGRSDFGCSEPVALEWEGKLIINTRVDWKRRLVYESSDMEKPWVEAVGTVSRVWGPSPKSNQPGSQTSFTAVTIEGMRVMLFTHPLNFKGRCVRDRLNLWLTDNQRIYNVGQVSIGDENSAYSSVLYKDDKLYCLHEINTDEVYSLVFARLVGELRIIKSVLRSWKNWTATCPAFAPLLIQPLRRQRVVVVPLSPRLVLLAFCRQRLPKRMGGSYRCVNASTANAERVRNGLKFAGVGGGALWPVSQQGQNQRYRFANHAFTLVASVTIHEAPRAASPLLGASLDSSGGKKLLGLSYDEKHQWQPIYGSTPVTPTGSWETGKRYHLVLTMANKIGSVYIDGELLEGSGQTVVPDGRTPDISHFYVGGYKRSDMPTISHVTVNNVLLYNRRQLNTEEIRTLFLSQDLIGTEAHMDSSSDSSAHSTPSTPADSSAHSTPSTPVDSSAHSTPSTPADSSAHGTPSTPVDSSAHGTPSTPADSSAHGTPSTPVDS
For the molecule B3, the “neurite outgrowth in N18 cells” value in the series with N18 cells is “as effective as the native enzyme in stimulating neurite outgrowth; also recorded: active”. For the same molecule, in “Trans-sialidase assay”, the trans-sialidase enzymatic activity result is “enzymatically inactive”. Besides, the “protection of PC12 cells” value in the series on PC12 cells [2] is given as “active”.

B4: TS-CC-47: recombinant fragment consisting of amino acid residues 79-478 of TS (SEQ ID NO:2) (protein, listed as Trypanosoma cruzi)
chain: MVAIADARYDTSNDNSLIDTVAKYSVDDGETWETQIAIKNSRVSSVSRVVDPTVIVKGNKLYVLVGSYYSSRSYWSSHGDARDWDILLAVGEVTKSTAGGKITASIKWGSPVSLKKFFPAEMEGMHTNQFLGGAGVAIVASNGNLVYPVQVTNKKKQVFSKIFYSEDDGKTWKFGKGRSDFGCSEPVALEWEGKLIINTRVDWKRRLVYESSDMEKPWVEAVGTVSRVWGPSPKSNQPGSQSSFTAVTIEGMRVMLFTHPLNFKGRWLRDRLNLWLTDNQRIYNVGQVSIGDENSAYSSVLYKDDKLYCLHEINTDEVYSLVFARLVGELRIIKSVLRSWKNWDSHLSSICTPADPAASSSESGCGPAVTTVGLVGFLSGNASQNVWEDAYRCVNASTAN
B4: the “neurite outgrowth in N18 cells” value in the series with N18 cells is on record as “did not substantially reduce neurite outgrowth; also recorded: active”. In addition, the “protection of PC12 cells” value in the series with PC12 cells [2] was “active”.

B5: cruzipain: T. cruzi protease (protein, UniProt P25779 123-467, looked up)
Cruzipain: APAAVDWRARGAVTAVKDQGQCGSCWAFSAIGNVECQWFLAGHPLTNLSEQMLVSCDKTDSGCSGGLMNNAFEWIVQENNGAVYTEDSYPYASGEGISPPCTTSGHTVGATITGHVELPQDEAQIAAWLAVNGPVAVAVDASSWMTYTGGVMTSCVSEQLDHGVLLVGYNDSAAVPYWIIKNSWTTQWGEEGYIRIAKGSNQCLVKEEASSAVVGGPGPTPEPTTTTTTSAPGPSPSYFVQMSCTDAACIVGCENVTLPTGQCLLTTSGVSAIVTCGAETLTEEVFLTSTHCSGPSVRSSVPLNKCNRLLRGSVEFFCGSSSSGRLADVDRQRRHQPYHSRHRRL
On to B5, for which the “neurite outgrowth in PC12 cells” value with PC12 cells [1] is listed as “did not induce neurite extension”.
